Data on one molecule can be found in article PMC3948464 (Nature Communications, 2014).

This test has as its target GST-AK2 (glutatione S-transferase-adenylate kinase 2) (human, UniProt P54819 1-239). As to the kind of experiment: SEC. (Size exclusion chromatography separates by hydrodynamic size, large species first.)

B1: His-DUSP26 (enzyme)
chain: MCPGNWLWASMTFMARFSRSSSRSPVRTRGTLEEMPTVQHPFLNVFELERLLYTGKTACNHADEVWPGLYLGDQDMANNRRELRRLGITHVLNASHSRWRGTPEAYEGLGIRYLGVEAHDSPAFDMSIHFQTAADFIHRALSQPGGKILVHCAVGVSRSATLVLAYLMLYHHLTLVEAIKKVKDHRGIIPNRGFLRQLLALDRRLRQGLEA
B1: the binding result is “binds”.
